Positions count from the first letter of the chain named.
B1: 49D, 72A (protein, listed as Rattus norvegicus)
chain: AFDGTWKVDRNENYEKFMEKMGINVVKRKLGAHDNLKLTITQEGNKFTDKESSNFRNIDVVFELGVDFAYSAADGTELTGTWTMEGNKLVGKFKRVDNGKELIAVREISGNELIQTYTYEGVEAKRIFKKE
modifications: PEPTIDE (1)...(131) wild-type rat intestinal fatty acid binding protein
B2: 38I 72G (protein, listed as Rattus norvegicus)
chain: B1 chain with L38I, D49V, A72G
modifications: PEPTIDE (1)...(131) wild-type rat intestinal fatty acid binding protein
B3: 104Y, 72A (protein, listed as Rattus norvegicus)
chain: B1 chain with D49V, A104Y
modifications: PEPTIDE (1)...(131) wild-type rat intestinal fatty acid binding protein
B4: 55I, 72A (protein, listed as Rattus norvegicus)
chain: B1 chain with D49V, F55I
modifications: PEPTIDE (1)...(131) wild-type rat intestinal fatty acid binding protein
B5: 11V, 72A (protein, listed as Rattus norvegicus)
chain: B1 chain with N11V, D49V
modifications: PEPTIDE (1)...(131) wild-type rat intestinal fatty acid binding protein
B6: 78I, 72A (protein, listed as Rattus norvegicus)
chain: B1 chain with D49V, L78I
modifications: PEPTIDE (1)...(131) wild-type rat intestinal fatty acid binding protein
B7: 21V, 72A (protein, listed as Rattus norvegicus)
chain: B1 chain with M21V, D49V
modifications: PEPTIDE (1)...(131) wild-type rat intestinal fatty acid binding protein
B8: 115N, 72A (protein, listed as Rattus norvegicus)
chain: B1 chain with D49V, Q115N
modifications: PEPTIDE (1)...(131) wild-type rat intestinal fatty acid binding protein
B9: 78V, 72A (protein, listed as Rattus norvegicus)
chain: B1 chain with D49V, L78V
modifications: PEPTIDE (1)...(131) wild-type rat intestinal fatty acid binding protein

Test: Probe fluorescence ratio response to arachidonic acid relative to ADIFAB2
Type: binding
Settings: arachidonic acid; response relative to ADIFAB2
In short: (§1)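 Each fatty acid's response was expressed relative to ADIFAB2, the rI-FABP-L72A probe, as ΔR/ΔRreference. ΔR is the change in the background-corrected two-wavelength intensity ratio R=Fλ1/Fλ2 from its analyte-free baseline R0. Emission was read near about 420-480 nm for unbound and about 495-580 nm for FFA-bound probe.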

Compared with B1, B2 is higher in “DR/DR AA” value: 0.308 for the first, 0.964 for the second.

Going from B3 to B4, the “DR/DR AA” value rises from 0.364 to 1.079.

Compared with B5, B6 is higher in “DR/DR AA” value: 0.932 for the first, 1.138 for the second.

Compared with B7, B8 is lower in “DR/DR AA” value: 0.939 for the first, 0.918 for the second.

In the case of B9, the “DR/DR AA” value is reported as 1.093.

Test: Probe fluorescence ratio response to linolenic acid relative to ADIFAB2
Type: binding
Settings: response relative to ADIFAB2
In short: as §1

First: B1
Second: B2
The “DR/DR LNA” value of the first is lower: 0.296 for the first, 0.701 for the second.

Compared with B3, B4 is higher in “DR/DR LNA” value: 0.278 for the first, 0.885 for the second.

Compared with B5, B6 is higher in “DR/DR LNA” value: 0.763 for the first, 0.958 for the second.

Going from B7 to B8, the “DR/DR LNA” value falls from 0.889 to 0.726.

With B9 the “DR/DR LNA” value was 0.798.

Test: Probe fluorescence ratio response to linoleic acid relative to ADIFAB2
Type: binding
Settings: response relative to ADIFAB2
In short: as §1

Going from B1 to B2, the “DR/DR LA” value rises from 0.324 to 0.772.

Compared with B3, B4 is higher in “DR/DR LA” value: 0.265 for the first, 0.834 for the second.

Going from B5 to B6, the “DR/DR LA” value rises from 0.825 to 0.874.

Going from B7 to B8, the “DR/DR LA” value falls from 0.871 to 0.777.

For B9, the “DR/DR LA” value was 0.865.

Test: Probe fluorescence ratio response to oleic acid relative to ADIFAB2
Type: binding
Settings: response relative to ADIFAB2
In short: as §1

Compared with B1, B2 is higher in “DR/DR OA” value: 0.316 for the first, 0.861 for the second.

Compared with B3, B4 is higher in “DR/DR OA” value: 0.236 for the first, 0.901 for the second.

First: B5
Second: B6
The “DR/DR OA” value of the first is lower: 0.552 for the first, 0.923 for the second.

Going from B7 to B8, the “DR/DR OA” value falls from 0.739 to 0.711.

For B9, the “DR/DR OA” value was 0.864.

Test: Probe fluorescence ratio response to palmitic acid relative to ADIFAB2
Type: binding
Settings: response relative to ADIFAB2
In short: as §1

First: B1
Second: B2
The “DR/DR PA” value of the first is lower: 0.161 for the first, 0.419 for the second.

Going from B3 to B4, the “DR/DR PA” value rises from 0.140 to 0.774.

Compared with B5, B6 is higher in “DR/DR PA” value: 0.732 for the first, 0.748 for the second.

First: B7
Second: B8
The “DR/DR PA” value of the first is lower: 0.462 for the first, 0.558 for the second.

With B9 the “DR/DR PA” value was 0.615.

— patent publication US20060257938A1, “Method of screening for drugs that block ligand binding to a lipid binding protein” (priority 2005, published 2006)
